Publication PMC9512702
“And” between values parts separate entries of the source, which are not always exact repeats. Equal entries are not always repeated.

What was measured:
[1] = biological target: mammalian expressed RBD (mRBD) of SARS-CoV-2 spike (SARS-CoV-2), P0DTC2; test: SPR
SIH-11 = test: AUC
SIH-7 = test: AUC
SIH-13 = test: AUC

DKEWILQKIYEIMRLLDELADAEASMRVSDLIYEFMKK (designed binder, modifications not checked) [SIH-11]
Kd [1]: 1.3 nM | stoichiometry N (SIH-11): 3.2

DKEWILQKIFEIMRLLDELADAEASMRVSDLIYEFMKK (designed binder, modifications not checked) [SIH-7]
Kd [1]: 2.9 nM | stoichiometry N (SIH-7): 4.1 and 7.9

DKEWILQKIFEIMRLLDELADAEASMRVSDLIYEFMKK (designed binder, modifications not checked) [SIH-13]
Kd [1]: 1.6 nM | stoichiometry N (SIH-13): 9.5 and 17.7
